The chains are these.
B1: Hairpin Ribozyme (parent)
chain: GUCCUCUUUCACGUGCGCGUGAAAGAGAGAAGUGAACCAGAGAAACACACGUUGUGGUAUAUUACCUGGUA

Variants of B1 are the subject of this data set. Description: self-cleavage, relative activity (ratio to wild type); higher = more cleavage; co-transcriptional.
In the case of C4G G15A, the self-cleavage is 0.216.

For C4G U60C, the self-cleavage amounted to 0.224.

Consider C4A A43U, for which the self-cleavage was 0.184.

Take U5G A28G: the self-cleavage stood at 0.669.

U5A G17U: the self-cleavage is 0.395.

For the variant C4U U53C, the self-cleavage worked out at 0.398.

C4U C65A: the self-cleavage was found to be 0.374.

In the case of C4U C65G, the self-cleavage was 0.0877.

Regarding C4A A39U, the self-cleavage amounted to 0.0907.

For U5A A45C, the self-cleavage stood at 0.161.

With U5A U63G, the self-cleavage came to 0.264.

Take U5C G40U: the self-cleavage stood at 0.19.

Take U5C G40A: the self-cleavage stood at 0.321.

Consider U5C G40C, for which the self-cleavage stood at 0.0912.

Turning to C4A G17U, the self-cleavage is 0.148.

For the variant U5C G57C, the self-cleavage turned out to be 0.0878.

As to U5C G57A, the self-cleavage amounted to 0.0835.

Turning to C4G A41G, the self-cleavage is 0.219.

Take C4G G27A: the self-cleavage was found to be 0.325.

Turning to U5G A11G, the self-cleavage is 0.335.

On to U5G A11U, for which the self-cleavage was found to be 0.0986.

In the case of C4A A41C, the self-cleavage was determined as 0.322.

Consider C4A A41U, for which the self-cleavage stood at 0.504.

C4A U8C: the self-cleavage is 0.113.

On to C4A U8A, for which the self-cleavage is 0.16.

Take C4U U67C: the self-cleavage was 0.128.

Regarding C4U U67G, the self-cleavage is 0.143.

As for U5C G69U, the self-cleavage stood at 0.186.

Regarding U5A C46G, the self-cleavage was 0.232.

Consider U5A A35U, for which the self-cleavage amounted to 0.295.

In the case of U5A A35G, the self-cleavage was found to be 0.559.

For C4G U63C, the self-cleavage was found to be 0.112.

As for U5A G34U, the self-cleavage was 1.07.

In the case of U5A G34C, the self-cleavage was 1.27.

Take U5A G34A: the self-cleavage turned out to be 0.435.

Consider U5C G68C, for which the self-cleavage is 0.159.

With C4A U52A, the self-cleavage is 0.206.

In the case of U5C G19U, the self-cleavage was found to be 0.565.

As for U5C G19C, the self-cleavage amounted to 0.435.

For C4G G40A, the self-cleavage was 0.114.

Take U5A U52A: the self-cleavage worked out at 0.646.

For the variant C4A G68U, the self-cleavage worked out at 0.111.

With C4U A47C, the self-cleavage came to 0.0918.

Regarding C4U A47U, the self-cleavage amounted to 0.115.

U5C A45C: the self-cleavage amounted to 0.0908.

Take U5A C50G: the self-cleavage turned out to be 0.0755.

As to U5A C50A, the self-cleavage was 0.161.

On to C4G A39C, for which the self-cleavage stood at 0.193.

Regarding C4G A39G, the self-cleavage stood at 0.0945.

Consider C4U G34A, for which the self-cleavage came out at 0.688.

Turning to U5A C12U, the self-cleavage was determined as 0.314.

Turning to C4A G56C, the self-cleavage was determined as 0.157.

For the variant C4G A35G, the self-cleavage is 0.153.

Regarding C4U G13A, the self-cleavage was determined as 0.238.

C4G C38U: the self-cleavage amounted to 0.129.

As for U5C A36U, the self-cleavage was 0.348.

For the variant C4U U9C, the self-cleavage was 0.22.

As to U5C C48A, the self-cleavage is 0.122.

Turning to U5A G21U, the self-cleavage came out at 0.322.

As for C4U U20A, the self-cleavage is 0.281.

Regarding C4U U20C, the self-cleavage worked out at 0.24.

Regarding C4A A31C, the self-cleavage was determined as 0.131.

In the case of C4A U20C, the self-cleavage amounted to 0.267.

Turning to C4U A44U, the self-cleavage is 0.162.

With U5C G42A, the self-cleavage was 0.133.

On to U5A A23G, for which the self-cleavage came out at 0.377.

Turning to U5G A39U, the self-cleavage stood at 0.11.

With U5G A39C, the self-cleavage was found to be 0.129.

Regarding C4A U7A, the self-cleavage was 0.175.

With C4A U7C, the self-cleavage turned out to be 0.147.

In the case of C4U G42C, the self-cleavage is 0.253.

As to C4G C46G, the self-cleavage is 0.122.

For U5A A36C, the self-cleavage worked out at 0.168.

As for U5A G56C, the self-cleavage is 0.0893.

Turning to U5A G56U, the self-cleavage came to 0.206.

On to C4G G13A, for which the self-cleavage is 0.193.

Take U5C C18U: the self-cleavage is 0.613.

Take U5A U53G: the self-cleavage was 0.278.

For C4G C16G, the self-cleavage amounted to 0.201.

As to C4G A43G, the self-cleavage was 0.121.

For the variant C4U A26C, the self-cleavage amounted to 0.144.

With C4A C48A, the self-cleavage worked out at 0.131.

As for C4U A61U, the self-cleavage came to 0.0691.

Turning to C4U A61G, the self-cleavage was 0.169.

Regarding C4U A61C, the self-cleavage came out at 0.294.

With C4G G17C, the self-cleavage was 0.121.

With C4G G17U, the self-cleavage came to 0.336.

As to U5G A30C, the self-cleavage is 0.0771.

As to U5G A30U, the self-cleavage was found to be 0.

Regarding C4G G25A, the self-cleavage came out at 0.156.

As to C4A G29C, the self-cleavage is 0.118.

C4A G29U: the self-cleavage turned out to be 0.111.

As for C4A G42U, the self-cleavage was 0.115.

C4G U62C: the self-cleavage is 0.148.

Regarding C4G U62G, the self-cleavage was 0.114.

With U5A U70C, the self-cleavage came to 0.543.

For the variant U5A U70A, the self-cleavage came out at 0.286.

On to C4U C12A, for which the self-cleavage is 0.333.

For the variant U5A A22U, the self-cleavage came out at 0.274.

Regarding U5A G57A, the self-cleavage amounted to 0.154.

U5A G57C: the self-cleavage is 0.231.

Consider C4U G68C, for which the self-cleavage was 0.0882.

Regarding C4U G68A, the self-cleavage stood at 0.18.

Turning to C4G G32C, the self-cleavage came to 0.115.

On to C4G G32U, for which the self-cleavage came to 0.149.

For C4A G13U, the self-cleavage turned out to be 0.248.

Take C4G U67G: the self-cleavage turned out to be 0.182.

As for U5A U14G, the self-cleavage is 0.233.

Regarding C4U A23C, the self-cleavage turned out to be 0.3.

U5A C37U: the self-cleavage is 0.291.

On to U5A C37A, for which the self-cleavage was 0.0853.

As to C4G A30C, the self-cleavage is 0.178.

Turning to C4G A30U, the self-cleavage came out at 0.175.

Regarding C4A C6A, the self-cleavage was 0.166.

On to U5A C18A, for which the self-cleavage was determined as 0.525.

As for U5A C18G, the self-cleavage turned out to be 0.306.

On to U5A A49G, for which the self-cleavage was 0.103.

In the case of U5A G40A, the self-cleavage is 0.17.

For the variant C4U G32C, the self-cleavage came to 0.114.

As for C4U G32U, the self-cleavage amounted to 0.0825.

As for C4A A64U, the self-cleavage was found to be 0.0608.

Take C4A A64C: the self-cleavage worked out at 0.156.

Turning to C4U G25A, the self-cleavage came to 0.129.

Regarding U5C C37G, the self-cleavage is 0.205.

Regarding C4U U8A, the self-cleavage came out at 0.2.

Regarding U5A G42U, the self-cleavage is 0.275.

On to U5A G42C, for which the self-cleavage was 0.106.

With C4U G29A, the self-cleavage stood at 0.107.

Turning to C4U G29U, the self-cleavage amounted to 0.194.

Take U5C U52A: the self-cleavage worked out at 0.706.

As for C4G A47G, the self-cleavage is 0.168.

Regarding U5A G25U, the self-cleavage was found to be 0.279.

Turning to C4U C38U, the self-cleavage turned out to be 0.234.

C4A G19U: the self-cleavage amounted to 0.221.

In the case of U5C A28C, the self-cleavage is 0.139.

On to U5A A41C, for which the self-cleavage was 0.554.

In the case of U5A G29C, the self-cleavage was determined as 0.153.

C4A C38A: the self-cleavage was found to be 0.104.

With C4A C38G, the self-cleavage was found to be 0.175.

Consider U5G A35U, for which the self-cleavage turned out to be 0.156.

On to C4G C6G, for which the self-cleavage turned out to be 0.17.

In the case of C4G C6U, the self-cleavage turned out to be 0.0456.

U5A U20C: the self-cleavage came to 0.358.

On to U5A U20G, for which the self-cleavage was determined as 0.566.

U5C A44U: the self-cleavage worked out at 0.0797.

Regarding C4A U33A, the self-cleavage came to 0.174.

Regarding C4A U33C, the self-cleavage amounted to 0.132.

With U5C U67G, the self-cleavage is 0.245.

Turning to C4U A22C, the self-cleavage is 0.172.

As for U5A C6U, the self-cleavage stood at 0.228.

With U5A C6G, the self-cleavage stood at 0.192.

Consider C4G U8A, for which the self-cleavage stood at 0.0905.

Consider U5C U8G, for which the self-cleavage was determined as 0.429.

In the case of U5A G68C, the self-cleavage worked out at 0.11.

As for U5A G68A, the self-cleavage was 0.146.

For C4G U70A, the self-cleavage stood at 0.161.

Turning to C4G U70G, the self-cleavage amounted to 0.219.

For the variant U5A A30C, the self-cleavage turned out to be 0.0813.

As to C4G C50A, the self-cleavage turned out to be 0.147.

As for C4U A59G, the self-cleavage worked out at 0.163.

On to C4U A59U, for which the self-cleavage amounted to 0.113.

As for U5C C50A, the self-cleavage worked out at 0.0675.

Consider C4U A28C, for which the self-cleavage came out at 0.273.

C4U U58G: the self-cleavage was 0.218.

For C4G A45C, the self-cleavage came to 0.0824.

U5A U58A: the self-cleavage was 0.387.

As for U5A U58C, the self-cleavage came to 0.615.

These data come from the RNAGym collection of RNA variant scans (doi:10.7554/elife.80360).
